The results in this text go back to patent US20210101970A1 (Pfizer, published 2021).

Test [1] has as its target T1, human CXCR5 (human, UniProt P32302 1-372).
T1 construct: also called hCXCR5; C-X-C chemokine receptor type 5
T1 sequence: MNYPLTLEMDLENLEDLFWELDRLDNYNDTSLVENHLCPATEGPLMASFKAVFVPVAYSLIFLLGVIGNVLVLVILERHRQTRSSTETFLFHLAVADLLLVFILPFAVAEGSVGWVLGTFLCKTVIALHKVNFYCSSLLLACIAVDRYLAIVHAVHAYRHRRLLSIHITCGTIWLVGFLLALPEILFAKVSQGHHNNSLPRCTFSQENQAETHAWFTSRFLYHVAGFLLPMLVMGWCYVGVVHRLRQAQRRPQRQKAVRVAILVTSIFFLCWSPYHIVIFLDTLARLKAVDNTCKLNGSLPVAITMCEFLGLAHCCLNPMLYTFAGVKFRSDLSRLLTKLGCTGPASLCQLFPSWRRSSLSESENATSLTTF
Nature of the test: flow cytometry, human PBMC B cells. Put shortly: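 Human and cynomolgus PBMCs stained with 4-fold serial antibody dilutions (11 points from 5000 ng/mL) plus Fc block, 2 h on ice, then lineage markers and anti-human Ig secondary 30 min at 4 °C. gMFI of binding population read by flow cytometry; EC50 from sigmoidal fit of equilibrium binding curves.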
Background: Flow cytometry measures light scatter and fluorescence of single cells or particles in a stream.

Test [2] deals with T1, human CXCR5. The experiment in a line: flow cytometry, human tonsil Tfh cells. As for the experimental part: Following centrifugation, red blood cell lysis was performed on the pellet using an ammonium chloride lysis buffer. Platelets were removed using a low speed centrifugation (200×g) for 10 minutes in Phosphate-Buffered Saline (PBS)/2% FBS/2 mM Ethylenediaminetetraacetic acid (EDTA). CD4+ T cells were purified out of the TMC mixture using an EasySep™ Human CD4+ T Cell Enrichment Kit, according to the manufacturer's instructions ([…] Technologies, Vancouver, BC, Canada).
Following isolation, PBMCs were plated at a density of 1.0×10⁵ cells per well and CD4+ TMCs were plated at a density of 2.0×10⁵ cells per well in isolation buffer (PBS containing 1% FBS and 1 mM EDTA) in 96 well U-bottom plates. The plates were then centrifuged at 1500 rpm for 5 minutes at room temperature. PBMCs and CD4+ TMCs were resuspended in Fluorescence-activated cell sorting (FACS) buffer (PBS containing 1% FBS) containing human crystallized fragment Fc block (2 μL per well; Biolegend) and 4-fold serial dilutions of the antibodies (11-point dilution series, beginning at 5000 ng/mL for PBMCs and 312.5 ng/mL for CD4+ TMCs) and incubated on ice for 2 hours. PBMCs and CD4+ TMCs were then washed with FACS buffer 3 times and resuspended in 50-100 μL of FACs buffer containing fluorescent-conjugated antibodies for staining lymphocyte subsets and a fluorescent-conjugated secondary antibody against human Ig to detect CXCR5 monoclonal antibodies (mAbs). After incubation for 30 minutes at 4° C., PBMCs and CD4+ TMCs were washed with FACS buffer 2 times and resuspended in 125 μL of 0.5% paraformaldehyde (PFA) in PBS. Plates were stored at 4° C. until analysis by flow cytometry (BD LSRFortessa™ Cell Analyzer, BD Biosciences, Franklin Lakes, N.J.).
The cell binding titration curves were generated by plotting the gMFI of the antigen binding population against the log of CXCR5 antibody concentration. EC₅₀ values were determined using GraphPad Prism® (version 6.0, GraphPad Software, Inc, San Diego, Calif.) nonlinear-regression curve fits and a sigmoidal log of agonist dose-response model, according to the following equation

Test [3] addresses T1, human CXCR5. Nature of the test: cell-based or functional assay.
The next test has as its target T2, XC251.
T2 construct: whole, on cells; also called hCXCR5-mL3
The experiment in a line: FACS on cells expressing the CXCR5 construct.

The target of another test is T3, XC252.
T3 construct: whole, on cells; also called hCXCR5-mL2
Nature of the test: FACS on cells expressing the CXCR5 construct.

The next test deals with T4, mouse CXCR5 (mouse, UniProt Q04683 1-374).
T4 construct: also called mCXCR5
T4 sequence: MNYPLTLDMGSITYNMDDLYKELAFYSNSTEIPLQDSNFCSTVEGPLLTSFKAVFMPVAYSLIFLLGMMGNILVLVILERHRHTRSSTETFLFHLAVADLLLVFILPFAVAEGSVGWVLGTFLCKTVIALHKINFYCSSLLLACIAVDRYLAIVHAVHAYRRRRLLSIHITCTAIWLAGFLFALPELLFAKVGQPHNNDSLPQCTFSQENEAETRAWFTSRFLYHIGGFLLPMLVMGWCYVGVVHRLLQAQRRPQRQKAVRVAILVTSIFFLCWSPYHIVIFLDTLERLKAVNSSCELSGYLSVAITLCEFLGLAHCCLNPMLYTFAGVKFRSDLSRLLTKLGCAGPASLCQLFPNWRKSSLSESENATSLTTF
Nature of the test: FACS on cells expressing the CXCR5 construct.

For the next test, the target named is T5, XC255.
T5 construct: whole, on cells; also called hCXCR5-mN-mL3
Nature of the test: FACS on cells expressing the CXCR5 construct.

The target in test [4] is T1, human CXCR5. Nature of the test: FACS on cells expressing the CXCR5 construct.
For a further test, the target named is T6, XC256.
T6 construct: whole, on cells; also called hCXCR5-mN-mL2
Nature of the test: FACS on cells expressing the CXCR5 construct.

The target of the next test is T7, XC253.
T7 construct: whole, on cells; also called hCXCR5-mN
Nature of the test: FACS on cells expressing the CXCR5 construct.

Another test has as its target T8, XC254.
T8 construct: whole, on cells; also called hCXCR5-mL2-mL3
Nature of the test: FACS on cells expressing the CXCR5 construct.

B1: Chimeric 11G2 (antibody, human IgG1, kappa, V domains shown)
VH: EVKLVESGGGLVQPGGSLRLSCATSGFTFTDFYMSWVRQPPGRALEWLGFIRNKANGYTTEYSASVKGRFTISRDNSQSILYLQMNTLRAGDSATYYCVRVYGSTLHYWGQGTILTVSS
VL: DVVVTQSPDSLAVSLGQRATISCRASESVEYHGTSLMHWYQQKPGQPPKLLIYAASNVESGVPARFSGSGSGTDFSLNIHPVEEGDIAMYFCQQSRKVPWTFGGGTKLEIKR
notes: mouse V regions on human IgG1/kappa; also called 11G2 (chimeric)
One may read the EC50 as the concentration that produces a half-maximal response. Low values mean an effect from little substance, high ones a need for much substance. B1: a half-maximal response in the test with human CXCR5 [1] (EC50) required 17.9 pM. The same molecule had a concentration giving a half-maximal response (EC50) with human CXCR5 [2] of 8.46 pM. In the test with human CXCR5 [3], the “ADCC Activity Average EC50, Human B Cells” value stood at 564 pM and the “ADCC Activity Average EC50, Human Tfh Cells” value was determined as 1.55 pM.

B2: 2C9 (reference antibody) (antibody, human IgG1, kappa, V domains shown)
VH: EVQLVESGGGLVKPGGSLRLSCAASGFTFSTNAMNWVRQAPGKGLERVARIRSKSNNYATYYADSVKDRFTISRDDSKNTLYLQMNSLKTEDTAVYYCVTMIPFAYWGQGTLVTVSS
VL: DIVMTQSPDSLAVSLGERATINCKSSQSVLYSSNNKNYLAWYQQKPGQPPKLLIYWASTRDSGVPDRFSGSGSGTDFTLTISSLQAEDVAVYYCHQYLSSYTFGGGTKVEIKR
notes: fucosylated
Regarding B2, the midpoint of the response in the test with human CXCR5 [1], the EC50, lay at 65.6 pM. Further, the GMFI with XC251 is 13300 GMFI; with XC252, 22400 GMFI; in the test with mouse CXCR5, 1180 GMFI; with XC255 it was 1950 GMFI; with human CXCR5 [4], 117000 GMFI; with XC256, 1970 GMFI. Moreover, the GMFI is 1780 GMFI with XC253 and 11400 GMFI with XC254. In the test with human CXCR5 [3], the “ADCC Activity Average EC50, Human B Cells” value stood at 380 pM.

B3: Afucosyl humanized 11G2 154/155 (antibody, human IgG1, kappa, V domains shown)
VH: EVQLVESGGGLVQPGGSLRLSCAASGFTFTDFYMSWVRQAPGKGLEWVGFIRNKANGYTTEYSASVKGRFTISRDNAKNSLYLQMNSLRAEDTAVYYCARVYGSTLHYWGQGTLVTVSS
VL: DIQMTQSPSSLSASVGDRVTITCRASESVEYHGTSLMHWYQQKPGKAPKLLIYAASNVESGVPSRFSGSGSGTDFTLTISSLQPEDFATYYCQQSRKVPWTFGQGTKVEIKR
modifications: afucosylated Fc glycan (Asn297)
notes: also called afucosyl h11G2 XC154/XC155; afucosylated h11G2 VL XC154/VH XC155
With B3, the concentration giving a half-maximal response (EC50) with human CXCR5 [1] is 6.6 pM; with human CXCR5 [2], 10.6 pM. Besides, the GMFI in the test with XC251 is 14600 GMFI; with XC252, 21600 GMFI; with mouse CXCR5, 901 GMFI; in the test with XC255, 1320 GMFI; with human CXCR5 [4] it was 139000 GMFI; with XC256, 1260 GMFI. The GMFI with XC253 came to 1220 GMFI; with XC254 it was 11500 GMFI. Besides, the “ADCC Activity Average EC50, Human B Cells” value in the test with human CXCR5 [3] was 2.01 pM. Further, in the test with human CXCR5 [3], the “ADCC Activity Average EC50, Human Tfh Cells” value is 0.11 pM. In addition, the “ADCC Activity Average EC50, Human Tfh-like Cells” value in the test with human CXCR5 [3] is 4.82 pM.
